The text below walks through data of paper PMC11289882, “Site-directed allostery perturbation to probe the negative regulation of hypoxia inducible factor-1α” (RSC Chemical Biology, 2024).

For experiment [1], the target named is Flu-HIF-1α 786-826 (Homo sapiens) (UniProt Q16665). In words: anisotropy.
The target in experiment [2] is CITED2 218-256 218-256 (Homo sapiens) (UniProt Q99967). The experiment is described as follows: fluorescence anisotropy competition. For orientation: In fluorescence polarisation assays a small probe gives low polarisation when free and higher when bound to something large.
Experiment [3] has as its target CITED2ΔN 224-256 (Homo sapiens) (UniProt Q99967). In words: fluorescence anisotropy competition.
Experiment [4] has as its target CITED2 218-256 218-256 (Homo sapiens) (UniProt Q99967). The experiment is described as follows: ITC. In general terms: Isothermal titration calorimetry measures the heat released or taken up as one component is titrated into another.
Experiment [5] concerns the target CITED2ΔN 224-256 (Homo sapiens) (UniProt Q99967). In words: ITC.

Chain of p300 TAZ1 330-420, Q09472 (Q09472 330-420): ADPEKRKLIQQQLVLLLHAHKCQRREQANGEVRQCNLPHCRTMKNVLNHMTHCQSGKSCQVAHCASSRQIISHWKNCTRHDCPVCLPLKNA
Chain of CITED2 218-256 218-256 (Homo sapiens) (Q99967 218-256): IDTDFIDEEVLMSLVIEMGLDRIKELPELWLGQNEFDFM
Chain of CITED2ΔN 224-256 (Homo sapiens) (Q99967 224-256, stated change not applied): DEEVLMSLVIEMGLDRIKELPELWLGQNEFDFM
Chain of Flu-HIF-1α 786-826 (Homo sapiens) (Q16665 786-826): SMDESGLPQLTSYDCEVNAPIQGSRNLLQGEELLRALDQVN

What is called Kd is the concentration at which binding is half-saturated. The low end stands for higher affinity, the high end for lower affinity. p300 TAZ1 330-420, Q09472: the dissociation constant Kd was determined as 64 nM in experiment [1]; 2 nM in experiment [2]; 86 nM in experiment [3]; 10.6 nM in experiment [4]; 50.5 nM in experiment [5].
